For this experiment, the target named is T1, Ac-Met11-Tau peptide: {N-alpha-acetyl}MEDHAGTYGLG (human).
T1 construct: Synthetic peptide coated on the ELISA plate; The C-terminal cysteine was added only for KLH conjugation of the immunogen; also called N-alpha-acetyl-Met11-Tau peptide; AcMet11-peptide
T1 peptide: Ac-MEDHAGTYGLG
Kind of experiment: indirect ELISA on coated peptide, positive control. In general terms: An ELISA detects its analyte on a solid surface through an enzyme-linked reagent.

Where no end group is shown, it is not given here.

B1: 2H2D11 antibody (antibody, IgG2a, V domains shown)
VH: EVRLVESGGGLVQPGGSLRLSCATSGFTFTDYYLSWVRQPPGKAFEWLGFIRNRADGYTTNYSASVKGRFTISRDNSQSILYLQMNTLRVEDSATYYCARDNDHYAMDYWGQGTSVTVSS
VL: DVVMTQTPLSLSVTIGQPASISCKSSQSLLYSNGKTYLNWLQQRPGQAPKHLMYQVSKLDPGIPDRFSGSGSETDFILKISRVEAEDLGIYYCLQGTYYPYTFGGGTKLEIK
notes: also called Mab 2H2D11; monoclonal antibody directed against AcMet11-Tau
Turning to B1, the binding result was “binds”.
